Measured values as given in publication doi:10.1101/2025.02.16.638521.

Molecular target: biotinylated Sos1^PRS peptide
Test: BLI

- Kd: 14.7 µM
Substance: GST-tagged Grb2^SH3C (C-terminal SH3 domain of Grb2) (domain or fragment)
